Source: patent publication US20200024322A1 (Eli Lilly, published 2020)
Numbering of substitutions follows the chain as printed. Numbered stars: 1 amine (or outer) side, 2 acyl side, 3 side chain; on linkers, the order of the positions; unused ones are H or OH. Square brackets hold non-standard residues; d marks the D form. Side chains are listed from the residue outwards. Ends that are not written are not given here. * marks the point of attachment. C20 diacid = O=C(O)CCCCCCCCCCCCCCCCCCC(=O)*; C18 diacid = O=C(O)CCCCCCCCCCCCCCCCC(=O)*; γGlu = O=C(O)[C@H](CCC(=O)[*:2])N[*:1]; αMeL = CC(C)C[C@](C)(N)C(=O)O; αMeK = C[C@](N)(CCCCN)C(=O)O; AEEA = NCCOCCOCC(=O)O; Aib = CC(C)(N)C(=O)O

T1: human GIP receptor (human, UniProt P48546 22-466)
T1 construct: whole, on cells; also called hGIPR; hGIP-R
T1 sequence (looked up): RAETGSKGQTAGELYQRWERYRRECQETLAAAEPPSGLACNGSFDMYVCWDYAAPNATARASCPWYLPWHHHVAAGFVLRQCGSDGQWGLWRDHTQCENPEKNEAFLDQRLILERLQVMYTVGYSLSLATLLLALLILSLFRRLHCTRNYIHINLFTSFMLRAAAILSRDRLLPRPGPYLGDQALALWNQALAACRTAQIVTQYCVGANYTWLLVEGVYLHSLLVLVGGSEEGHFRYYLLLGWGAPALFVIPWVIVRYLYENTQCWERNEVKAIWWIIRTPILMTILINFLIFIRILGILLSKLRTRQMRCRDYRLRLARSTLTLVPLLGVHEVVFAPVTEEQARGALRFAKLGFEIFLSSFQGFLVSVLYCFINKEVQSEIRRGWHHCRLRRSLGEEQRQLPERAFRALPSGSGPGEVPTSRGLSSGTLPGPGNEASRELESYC

T2: human GIP receptor (human, UniProt P48546 22-466)
T2 construct: whole, on cells; Used as crude membranes of stably transfected CHO cells; also called hGIPR
T2 sequence (looked up): T1 sequence (looked up)

B1: Example 246 (peptide)
peptide: YXEGTXTSDASIXLDXKAQXAFIXXLIEGGPSSGAPPPS
modifications: Aib2; αMeF(2F)6; αMeL13; Orn16; K17((2-[2-(2-Amino-ethoxy)-ethoxy]-acetyl)2-(γ-Glu)-CO-(CH2)16-CO2H); Aib20; D-Glu24; αMeY25; C-terminal NH2
B2: Example 229 (peptide)
peptide: YXEGTXTSDYSXLDEKAQXEFIXYLIEGGPSSGAPPPS
modifications: Aib2; αMeF(2F)6; αMeL12; K16((2-[2-(2-Amino-ethoxy)-ethoxy]-acetyl)2-(γ-Glu)-CO-(CH2)18-CO2H); Aib19; D-Glu23; C-terminal NH2 (positions counted on this 38-residue peptide)
B3: Example 253 (peptide)
peptide: YXEGTFTSDYSILLDKKAQAAFIEYLIEGGPSSGAPPPS
modifications: Aib2; K17((2-[2-(2-Amino-ethoxy)-ethoxy]-acetyl)2-(γ-Glu)-CO-(CH2)18-CO2H); C-terminal NH2
B4: Example 330 (peptide)
peptide: Y[Aib]EGTFTSDYSILLDEK([AEEA-AEEA-γGlu-C20 diacid])AQ[Aib]AFIEYLIAGGPSSGAPPPS-NH2
modifications: N-terminus assumed
SMILES: CC[C@H](C)[C@H](NC(=O)[C@H](CC(C)C)NC(=O)[C@H](Cc1ccc(O)cc1)NC(=O)[C@H](CCC(=O)O)NC(=O)[C@@H](NC(=O)[C@H](Cc1ccccc1)NC(=O)[C@H](C)NC(=O)C(C)(C)NC(=O)[C@H](CCC(N)=O)NC(=O)[C@H](C)NC(=O)[C@H](CCCCNC(=O)COCCOCCNC(=O)COCCOCCNC(=O)CC[C@H](NC(=O)CCCCCCCCCCCCCCCCCCC(=O)O)C(=O)O)NC(=O)[C@H](CCC(=O)O)NC(=O)[C@H](CC(=O)O)NC(=O)[C@H](CC(C)C)NC(=O)[C@H](CC(C)C)NC(=O)[C@@H](NC(=O)[C@H](CO)NC(=O)[C@H](Cc1ccc(O)cc1)NC(=O)[C@H](CC(=O)O)NC(=O)[C@H](CO)NC(=O)[C@@H](NC(=O)[C@H](Cc1ccccc1)NC(=O)[C@@H](NC(=O)CNC(=O)[C@H](CCC(=O)O)NC(=O)C(C)(C)NC(=O)[C@@H](N)Cc1ccc(O)cc1)[C@@H](C)O)[C@@H](C)O)[C@@H](C)CC)[C@@H](C)CC)C(=O)N[C@@H](C)C(=O)NCC(=O)NCC(=O)N1CCC[C@H]1C(=O)N[C@@H](CO)C(=O)N[C@@H](CO)C(=O)NCC(=O)N[C@@H](C)C(=O)N1CCC[C@H]1C(=O)N1CCC[C@H]1C(=O)N1CCC[C@H]1C(=O)N[C@@H](CO)C(N)=O
B5: Example 268 (peptide)
peptide: Y[Aib]EGTFTSDYSILLDEK([AEEA-AEEA-γGlu-C18 diacid])AQ[Aib]AFIEYLIEGGPSSG-NH2
modifications: N-terminus assumed
SMILES: CC[C@H](C)[C@H](NC(=O)[C@H](CC(C)C)NC(=O)[C@H](Cc1ccc(O)cc1)NC(=O)[C@H](CCC(=O)O)NC(=O)[C@@H](NC(=O)[C@H](Cc1ccccc1)NC(=O)[C@H](C)NC(=O)C(C)(C)NC(=O)[C@H](CCC(N)=O)NC(=O)[C@H](C)NC(=O)[C@H](CCCCNC(=O)COCCOCCNC(=O)COCCOCCNC(=O)CC[C@H](NC(=O)CCCCCCCCCCCCCCCCC(=O)O)C(=O)O)NC(=O)[C@H](CCC(=O)O)NC(=O)[C@H](CC(=O)O)NC(=O)[C@H](CC(C)C)NC(=O)[C@H](CC(C)C)NC(=O)[C@@H](NC(=O)[C@H](CO)NC(=O)[C@H](Cc1ccc(O)cc1)NC(=O)[C@H](CC(=O)O)NC(=O)[C@H](CO)NC(=O)[C@@H](NC(=O)[C@H](Cc1ccccc1)NC(=O)[C@@H](NC(=O)CNC(=O)[C@H](CCC(=O)O)NC(=O)C(C)(C)NC(=O)[C@@H](N)Cc1ccc(O)cc1)[C@@H](C)O)[C@@H](C)O)[C@@H](C)CC)[C@@H](C)CC)C(=O)N[C@@H](CCC(=O)O)C(=O)NCC(=O)NCC(=O)N1CCC[C@H]1C(=O)N[C@@H](CO)C(=O)N[C@@H](CO)C(=O)NCC(N)=O
B6: Example 270 (peptide)
peptide: Y[Aib]EGTFTSDYSILLDKK([AEEA-AEEA-γGlu-C18 diacid])AQ[Aib]EFIEYLIEGGPSSG-NH2
modifications: N-terminus assumed
SMILES: CC[C@H](C)[C@H](NC(=O)[C@H](CC(C)C)NC(=O)[C@H](Cc1ccc(O)cc1)NC(=O)[C@H](CCC(=O)O)NC(=O)[C@@H](NC(=O)[C@H](Cc1ccccc1)NC(=O)[C@H](CCC(=O)O)NC(=O)C(C)(C)NC(=O)[C@H](CCC(N)=O)NC(=O)[C@H](C)NC(=O)[C@H](CCCCNC(=O)COCCOCCNC(=O)COCCOCCNC(=O)CC[C@H](NC(=O)CCCCCCCCCCCCCCCCC(=O)O)C(=O)O)NC(=O)[C@H](CCCCN)NC(=O)[C@H](CC(=O)O)NC(=O)[C@H](CC(C)C)NC(=O)[C@H](CC(C)C)NC(=O)[C@@H](NC(=O)[C@H](CO)NC(=O)[C@H](Cc1ccc(O)cc1)NC(=O)[C@H](CC(=O)O)NC(=O)[C@H](CO)NC(=O)[C@@H](NC(=O)[C@H](Cc1ccccc1)NC(=O)[C@@H](NC(=O)CNC(=O)[C@H](CCC(=O)O)NC(=O)C(C)(C)NC(=O)[C@@H](N)Cc1ccc(O)cc1)[C@@H](C)O)[C@@H](C)O)[C@@H](C)CC)[C@@H](C)CC)C(=O)N[C@@H](CCC(=O)O)C(=O)NCC(=O)NCC(=O)N1CCC[C@H]1C(=O)N[C@@H](CO)C(=O)N[C@@H](CO)C(=O)NCC(N)=O
B7: Example 22 (peptide)
peptide: Y[Aib]EGTFTSDYSI[αMeL]LDEK([AEEA-AEEA-γGlu-C20 diacid])AQ[αMeK]AFIEYLLE[Aib]GPSSGAPPPS-NH2
modifications: N-terminus assumed
SMILES: CC[C@H](C)[C@H](NC(=O)[C@H](Cc1ccccc1)NC(=O)[C@H](C)NC(=O)[C@](C)(CCCCN)NC(=O)[C@H](CCC(N)=O)NC(=O)[C@H](C)NC(=O)[C@H](CCCCNC(=O)COCCOCCNC(=O)COCCOCCNC(=O)CC[C@H](NC(=O)CCCCCCCCCCCCCCCCCCC(=O)O)C(=O)O)NC(=O)[C@H](CCC(=O)O)NC(=O)[C@H](CC(=O)O)NC(=O)[C@H](CC(C)C)NC(=O)[C@](C)(CC(C)C)NC(=O)[C@@H](NC(=O)[C@H](CO)NC(=O)[C@H](Cc1ccc(O)cc1)NC(=O)[C@H](CC(=O)O)NC(=O)[C@H](CO)NC(=O)[C@@H](NC(=O)[C@H](Cc1ccccc1)NC(=O)[C@@H](NC(=O)CNC(=O)[C@H](CCC(=O)O)NC(=O)C(C)(C)NC(=O)[C@@H](N)Cc1ccc(O)cc1)[C@@H](C)O)[C@@H](C)O)[C@@H](C)CC)C(=O)N[C@@H](CCC(=O)O)C(=O)N[C@@H](Cc1ccc(O)cc1)C(=O)N[C@@H](CC(C)C)C(=O)N[C@@H](CC(C)C)C(=O)N[C@@H](CCC(=O)O)C(=O)NC(C)(C)C(=O)NCC(=O)N1CCC[C@H]1C(=O)N[C@@H](CO)C(=O)N[C@@H](CO)C(=O)NCC(=O)N[C@@H](C)C(=O)N1CCC[C@H]1C(=O)N1CCC[C@H]1C(=O)N1CCC[C@H]1C(=O)N[C@@H](CO)C(N)=O
B8: Example 247 (peptide)
peptide: B1 peptide with A10Y, A21E, X25Y
modifications: Aib2; αMeF(2F)6; Aib13; Orn16; K17((2-[2-(2-Amino-ethoxy)-ethoxy]-acetyl)2-(γ-Glu)-CO-(CH2)16-CO2H); Aib20; D-Glu24; C-terminal NH2

What follows are binders tested against T1, human GIP receptor (assay: [125I]-GIP competition SPA, hGIPR membranes).
Procedure: The binding buffer contains 25 mM HEPES, pH 7.4, 2.5 mM CaCl₂, 1 mM MgCl₂, 0.1% (w/v) bacitracin, 0.003% (w/v) TWEEN®-20, and Roche Complete™ Protease Inhibitors without EDTA. […] Plates are sealed and mixed on a plate shaker (setting 6) for 1 minute and read with a PerkinElmer Trilux MicroBeta® scintillation counter after 2.5 to 12 hours of incubation/settling time at room temperature.
(§1) Data are analyzed using four-parameter (curve maximum, curve minimum, IC₅₀, Hill slope) nonlinear regression routines (Genedata Screener, version 12.0.4, Genedata AG, Basal, Switzerland). […] Values for Kᵢ are reported as the geometric mean, with error expressed as the standard error of the mean (SEM) and n is equal to the number of independent replicates (determined in assays performed on different days). Geometric Means are calculated as follows: […]

Compared with B1, B2 is 49-fold higher in Ki: 0.0509 nM for the first, 2.47 nM for the second. The first binds more tightly here.

B3 and B4 are within 1.5-fold of each other in Ki: 0.138 nM for the first, 0.114 nM for the second.

B5 and B6 are within 1.5-fold of each other in Ki: 0.0814 nM for the first, 0.117 nM for the second.

The binders below were run against T3, human GLP-1 receptor (human, UniProt P43220 24-463) (assay: SPA, [125I]-GLP-1 displacement, hGLP-1R membranes).
T3 construct: whole, on cells; Used as crude membranes of stably transfected HEK293 cells; also called hGLP1R; hGLP-1R

Binder B7 has a Ki of 23.1 nM.

These binders were tested against T4, human GLP-1 receptor (human, UniProt P43220 24-463) (assay: [125I]-GLP-1 competition SPA, hGLP-1R membranes).
T4 construct: whole, on cells; also called hGLP-1R; hGLP1R
Procedure: The binding buffer contains 25 mM HEPES, pH 7.4, 2.5 mM CaCl₂, 1 mM MgCl₂, 0.1% (w/v) bacitracin, 0.003% (w/v) TWEEN®-20, and Roche Complete™ Protease Inhibitors without EDTA.
as §1

Going from B8 to B1, the Ki falls from 4.39 nM to 0.812 nM (5.4-fold). The second binds more tightly here.

Going from B2 to B3, the Ki falls from 36.2 nM to 2.57 nM (14-fold). The second binds more tightly here.

First: B5
Second: B6
The Ki of the first is 2.1-fold lower: 3.98 nM for the first, 8.27 nM for the second.

Each binder was assayed against T5, human glucagon receptor (human, UniProt P47871 26-477) (assay: SPA, [125I]-Gcg displacement, hGcgR membranes).
T5 construct: whole, on cells; Used as crude membranes of stably transfected HEK293 cells; also called hGcgR; hGLcgR
T5 sequence (P47871 26-477): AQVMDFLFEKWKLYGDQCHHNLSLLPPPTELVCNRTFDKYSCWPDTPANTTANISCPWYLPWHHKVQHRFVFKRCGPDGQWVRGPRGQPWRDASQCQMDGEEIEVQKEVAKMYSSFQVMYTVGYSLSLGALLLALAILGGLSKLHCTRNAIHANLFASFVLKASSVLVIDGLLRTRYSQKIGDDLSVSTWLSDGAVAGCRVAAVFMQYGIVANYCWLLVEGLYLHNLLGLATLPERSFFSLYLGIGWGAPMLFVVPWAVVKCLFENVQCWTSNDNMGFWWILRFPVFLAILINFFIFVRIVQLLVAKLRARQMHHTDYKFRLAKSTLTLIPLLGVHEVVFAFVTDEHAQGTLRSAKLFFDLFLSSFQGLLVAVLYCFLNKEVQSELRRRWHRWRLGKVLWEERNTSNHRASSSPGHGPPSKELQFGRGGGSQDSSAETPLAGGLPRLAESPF

For B7, the Ki was 53.4 nM.

What follows are binders tested against T2, human GIP receptor (assay: SPA, [125I]-GIP displacement, hGIPR membranes).

With B7 the Ki was 0.624 nM.
